US20240228648A1
pKd: −log10 of the molar value.

What was measured:
[1] = target: CD38 on the surface of Daudi cells (human) (UniProt P28907); test: flow cytometry on Daudi cells, antibody 300 nM
[2] = target: recombinant biotinylated CD38-avi protein (extracellular domain of human CD38) (human) (UniProt P28907); test: competitive ELISA: plate coated with Darzalex (2 µg/ml); biotinylated CD38 (0.2 µg/ml) pre-incubated with soluble Darzalex (15 µg/ml), captured CD38 detected with streptavidin-HRP; replicate 2
[3] = target: CD38 on the surface of Daudi cells (human) (UniProt P28907); test: flow cytometry on Daudi cells, antibody 16.7 nM
[4] = target: recombinant biotinylated CD38-avi protein (extracellular domain of human CD38) (human) (UniProt P28907); test: competitive ELISA, no competitor: plate coated with Darzalex (2 µg/ml); biotinylated CD38 alone, captured CD38 detected with streptavidin-HRP; replicate 1
[5] = target: CD38 on the surface of Daudi cells (human) (UniProt P28907); test: flow cytometry on Daudi cells, antibody 5.56 nM
[6] = target: CD38 on the surface of Daudi cells (human) (UniProt P28907); test: flow cytometry on Daudi cells, antibody 0.206 nM
[7] = target: recombinant biotinylated CD38-avi protein (extracellular domain of human CD38) (human) (UniProt P28907); test: capture ELISA, antibody 3.125 nM, biotinylated CD38-avi 0.5 ug/ml
[8] = target: recombinant biotinylated CD38-avi protein (extracellular domain of human CD38) (human) (UniProt P28907); test: capture ELISA, antibody 12.5 nM, biotinylated CD38-avi 0.5 ug/ml
[9] = target: recombinant biotinylated CD38-avi protein (extracellular domain of human CD38) (human) (UniProt P28907); test: capture ELISA, antibody 0.781 nM, biotinylated CD38-avi 0.5 ug/ml
[10] = target: CD38 on the surface of Daudi cells (human) (UniProt P28907); test: flow cytometry on Daudi cells, antibody 0.069 nM
[11] = target: recombinant biotinylated CD38-avi protein (extracellular domain of human CD38) (human) (UniProt P28907); test: capture ELISA, antibody 0 nM (background), biotinylated CD38-avi 0.5 ug/ml
[12] = target: CD38 on the surface of Daudi cells (human) (UniProt P28907); test: flow cytometry on Daudi cells, antibody 50 nM
[13] = target: recombinant biotinylated CD38-avi protein (extracellular domain of human CD38) (human) (UniProt P28907); test: capture ELISA, antibody 50 nM, biotinylated CD38-avi 0.5 ug/ml
[14] = target: CD38 on the surface of Daudi cells (human) (UniProt P28907); test: flow cytometry on Daudi cells, antibody 1.85 nM
[15] = target: recombinant biotinylated CD38-avi protein (extracellular domain of human CD38) (human) (UniProt P28907); test: competitive ELISA, no competitor: plate coated with Darzalex (2 µg/ml); biotinylated CD38 alone, captured CD38 detected with streptavidin-HRP; replicate 2
[16] = target: recombinant biotinylated CD38-avi protein (extracellular domain of human CD38) (human) (UniProt P28907); test: competitive ELISA: plate coated with Darzalex (2 µg/ml); biotinylated CD38 (0.2 µg/ml) pre-incubated with soluble Darzalex (15 µg/ml), captured CD38 detected with streptavidin-HRP; replicate 1
[17] = target: recombinant biotinylated CD38-avi protein (extracellular domain of human CD38) (human) (UniProt P28907); test: capture ELISA: antibody captured by anti-human Fc, biotinylated CD38-avi 0.5 ug/ml, fit in GraphPad Prism
[18] = target: recombinant biotinylated CD38-avi protein (extracellular domain of human CD38) (human) (UniProt P28907); test: capture ELISA, antibody 0.195 nM, biotinylated CD38-avi 0.5 ug/ml
[19] = target: CD38 on the surface of Daudi cells (human) (UniProt P28907); test: flow cytometry on Daudi cells, anti-human IgG-Alexa647, fit in GraphPad Prism
[20] = target: recombinant biotinylated CD38-avi protein (extracellular domain of human CD38) (human) (UniProt P28907); test: capture ELISA, antibody 0.012 nM, biotinylated CD38-avi 0.5 ug/ml
[21] = target: CD38 on the surface of Daudi cells (human) (UniProt P28907); test: cell-based or functional assay
[22] = target: CD38 on the surface of Daudi cells (human) (UniProt P28907); test: flow cytometry on Daudi cells, antibody 1.617 nM (so in the source)
[23] = target: recombinant biotinylated CD38-avi protein (extracellular domain of human CD38) (human) (UniProt P28907); test: capture ELISA, antibody 0.049 nM, biotinylated CD38-avi 0.5 ug/ml

Darzalex (antibody) was tested, and the Mean fluorescence [1] was 1.29e+06, the OD450 [2] was 0.176 and the Mean fluorescence [3] was 1.34e+06. The OD450 [4] was 0.377, the Mean fluorescence [5] was 1.09e+06 and the Mean fluorescence [6] was 46700. For the same substance, the OD450 [7] was 0.172 OD450, the OD450 [8] was 0.164 OD450 and the OD450 [9] was 0.145 OD450. The Mean fluorescence [10] was 9320, the OD450 [11] was 0.143 OD450 and the Mean fluorescence [12] was 1.31e+06. For the same substance, the OD450 [13] was 0.171 OD450, the Mean fluorescence [14] was 574000 and the OD450 [15] was 0.385. The OD450 [16] was 0.168, the pKd [17] was 8.79 and the OD450 [18] was 0.135 OD450. The pKd [19] was 8.49, the OD450 [20] was 0.135 OD450 and the ADCC activity (luciferase) on Daudi cells at 0.0015 nM antibody [21] was 0.12. For the same substance, the ADCC activity (luciferase) on Daudi cells at 0.006 nM antibody [21] was 1.32, the ADCC activity (luciferase) on Daudi cells at 0.0244 nM antibody [21] was 3.88 and the ADCC activity (luciferase) on Daudi cells at 0.098 nM antibody [21] was 14.7. For the same substance, the ADCC activity (luciferase) on Daudi cells at 0.39 nM antibody [21] was 40.9, the ADCC activity (luciferase) on Daudi cells at 1.56 nM antibody [21] was 57.2 and the ADCC activity (luciferase) on Daudi cells at 6.25 nM antibody [21] was 61. For the same substance, the ADCC activity (luciferase) on Daudi cells at 25 nM antibody [21] was 64.1, the ADCC activity (luciferase) on Daudi cells at 100 nM antibody [21] was 66.5 and the CDC: % live Daudi cells (P1) at 0.078 nM antibody [21] was 63.9%. For the same substance, the CDC: % live Daudi cells (P1) at 0.156 nM antibody [21] was 75.2%, the CDC: % live Daudi cells (P1) at 0.3125 nM antibody [21] was 70.6% and the CDC: % live Daudi cells (P1) at 0.625 nM antibody [21] was 67.4%. It also gave a CDC: % live Daudi cells (P1) at 1.25 nM antibody [21] of 55.6%, a CDC: % live Daudi cells (P1) at 2.5 nM antibody [21] of 47.6% and a CDC: % live Daudi cells (P1) at 5 nM antibody [21] of 40.9%. The CDC: % live Daudi cells (P1) at 10 nM antibody [21] was 32.3%, the Mean fluorescence [22] was 158000 and the OD450 [23] was 0.147 OD450.
